Experiment [1] deals with T1, Full length untagged human MDM2 (Murine double minute 2) (human, UniProt Q00987 1-491). In words: SPR.
Experiment [2] addresses T1, Full length untagged human MDM2 (Murine …). The experiment is described as follows: atomic force spectroscopy.

Results on one molecule are retold here after publication PMC5012629 (International Journal of Nanomedicine, 2016).

T1 sequence (Q00987 whole entry): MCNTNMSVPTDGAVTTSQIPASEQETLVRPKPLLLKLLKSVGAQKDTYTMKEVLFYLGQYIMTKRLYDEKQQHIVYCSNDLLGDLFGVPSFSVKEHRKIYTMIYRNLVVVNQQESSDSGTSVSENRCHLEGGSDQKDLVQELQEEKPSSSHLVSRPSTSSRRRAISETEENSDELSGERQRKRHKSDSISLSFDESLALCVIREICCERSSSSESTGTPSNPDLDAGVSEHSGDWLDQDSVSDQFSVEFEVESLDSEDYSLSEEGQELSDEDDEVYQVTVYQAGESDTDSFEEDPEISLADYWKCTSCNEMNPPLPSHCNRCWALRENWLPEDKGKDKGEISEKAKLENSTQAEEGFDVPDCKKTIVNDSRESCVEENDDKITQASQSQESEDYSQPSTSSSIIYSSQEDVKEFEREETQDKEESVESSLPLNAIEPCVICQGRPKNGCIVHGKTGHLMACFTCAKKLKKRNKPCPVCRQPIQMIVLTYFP

B1: Full length N-terminal glutathione S-transferase (GST)-tagged human MDM4 (Murine double minute 4) (natural protein, UniProt O15151 1-490, looked up)
chain: MTSFSTSAQCSTSDSACRISPGQINQVRPKLPLLKILHAAGAQGEMFTVKEVMHYLGQYIMVKQLYDQQEQHMVYCGGDLLGELLGRQSFSVKDPSPLYDMLRKNLVTLATATTDAAQTLALAQDHSMDIPSQDQLKQSAEESSTSRKRTTEDDIPTLPTSEHKCIHSREDEDLIENLAQDETSRLDLGFEEWDVAGLPWWFLGNLRSNYTPRSNGSTDLQTNQDVGTAIVSDTTDDLWFLNESVSEQLGVGIKVEAADTEQTSEEVGKVSDKKVIEVGKNDDLEDSKSLSDDTDVEVTSEDEWQCTECKKFNSPSKRYCFRCWALRKDWYSDCSKLTHSLSTSDITAIPEKENEGNDVPDCRRTISAPVVRPKDAYIKKENSKLFDPCNSVEFLDLAHSSESQETISSMGEQLDNLSEQRTDTENMEDCQNLLKPCSLCEKRPRDGNIIHGRTGHLVTCFHCARRLKKAGASCPICKKEIQLVIKVFIA
Turning to B1, in experiment [1], the Kd (commonly the free concentration of one partner at which half of the binding sites on the other are occupied at equilibrium, for simple one-to-one binding) amounted to 2000 nM. In addition, the off-rate constant (koff) (commonly a measure of how fast the partners let go of each other) in experiment [2] is 0.02 ± 0.01 s⁻¹.
